Data published in publication PMC11289669, “BAR502/fibrate conjugates: synthesis, biological evaluation and metabolic profile” (Frontiers in Chemistry, 2024).
No end group written: not given here.

What was measured:
[1] = Microsomal stability in human liver microsomes; assay type: in vitro ADME
Experimental: Chemical stability in HCl Buffer, PBS buffer and culture medium (EMEM) was evaluated by LC-MS dissolving compound 1 at 10 μM (final concertation) in cited buffers and injecting aliquots removed from incubations at different time points. Microsomal stability was evaluated employing 50 mM potassium phosphate buffer (pH 7.4) containing 0.15 mg of Human liver microsomes (Sigma-Aldrich, St. Louis, MO, United States) 5 mM MgCl2, 1 mM NADPH, 5 mM glucose 6-phosphate, 0.4 U·mL^−1 glucose 6-phosphate dehydrogenase. Compounds were tested at 1 µM final concentration. Aliquots, removed at different time points, were diluted with ice-cold acetonitrile and analyzed by LC-MS.

U937 cells = test: Pro-inflammatory gene expression (qRT-PCR) in LPS-activated U937 cells; assay type: cell-based, human; conditions: LPS 100 ng/mL, 18 h, BAR502 and clofibrate 5 and 10 μM, compound 1 10 μM
Experimental: U937 cell line were cultured in RPMI 1640 supplemented with 10% FBS, 1% glutamine, and 1% penicillin/streptomycin and were regularly passaged to maintain exponential growth. After 24 h of starvation cells were classically activated with LPS (100 ng/mL; Sigma-Aldrich, St. Louis, MO), and exposed or not to BAR502, clofibrate and compound 1 at the concentration of 5 and 10 μM for 18 h. At the end of the experiment the cells were recovered. Total mRNA extraction from U937 and 3T3.L1 was performed using Tri-Reagent (Zymo Research) and Direct-zolTM RNA MiniPrep w/Zymo-SpinTM IIC Columns (Zymo Research, Irvine, CA). After purification from genomic DNA using DNase I (Thermo Fisher Scientific, Waltham, MA), 1 μg of RNA from each sample was reverse transcribed using Kit […] Basic (Nippon Genetics, […] 20-μL of reaction volume; 50 ng of cDNA was amplified in a 20-μL solution containing 200 nM each primer and 10 μL of PowerUpTM SYBRTM Green Master Mix (Thermo Fisher Scientific, Waltham, MA). All reactions were performed in triplicate using the following thermal cycling conditions: 3 min at 95°C, followed by 40 cycles of 95°C for 15 s, 56°C for 20 s, and 72°C for 30 s, using a QuantStudio 3 system (Applied Biosystems, Foster City, CA). The relative mRNA expression was calculated accordingly to the ΔCt method. Primers were designed using the software PRIMER3 (http://frodo.wi.mit.edu/primer3/) using published data obtained from the NCBI database. The primer used were as following (forward and reverse): hGAPDH (for […]-1β (for [NT], hIL6 (for [NT] hCXCL2 (for [NT] hTNFα; (for [NT], mAdiponectin (for […]ɤ (for [NT], mCebp (for [NT]

PPARα LBD GST fused = target: T1, PPARα LBD GST fused; test: AlphaScreen or HTRF; coactivator recruitment; 20 nM GST-PPARα-LBD, 60 nM biotinylated SRC1 peptide, 20 μg/mL donor and acceptor beads; 50 mM MOPS, 50 mM NaF, 0.05 mM CHAPS, 0.05% BSA, pH 7.4; 25 μL, 384 wells; compounds at 50 μM for efficacy (% vs. fenofibrate)
T1 sequence (Q07869 whole entry, species assumed, looked up): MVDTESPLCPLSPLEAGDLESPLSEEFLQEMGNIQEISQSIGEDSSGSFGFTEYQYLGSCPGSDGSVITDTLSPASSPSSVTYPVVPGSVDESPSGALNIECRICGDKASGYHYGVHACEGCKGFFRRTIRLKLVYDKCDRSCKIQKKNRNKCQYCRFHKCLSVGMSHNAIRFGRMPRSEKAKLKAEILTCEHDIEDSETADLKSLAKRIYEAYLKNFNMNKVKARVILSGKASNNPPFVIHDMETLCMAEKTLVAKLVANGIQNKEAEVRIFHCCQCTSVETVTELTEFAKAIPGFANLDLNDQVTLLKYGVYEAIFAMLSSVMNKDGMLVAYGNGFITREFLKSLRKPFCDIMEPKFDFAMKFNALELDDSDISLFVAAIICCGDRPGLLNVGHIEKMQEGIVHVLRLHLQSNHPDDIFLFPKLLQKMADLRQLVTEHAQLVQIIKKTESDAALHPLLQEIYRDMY

FXR-LBD GST-fused = target: T2, FXR-LBD GST-fused; test: AlphaScreen or HTRF; coactivator recruitment; 10 nM GST-FXR-LBD, 30 nM biotinylated SRC1 peptide, 20 μg/mL donor and acceptor beads; 50 mM Tris-HCl pH 7.4, 20 mM KCl, 1 mM DTT, 0.1% BSA; 25 μL, 384 wells; compounds at 10 μM for efficacy (% vs. CDCA), concentration-response for EC50
T2 sequence (Q96RI1 whole entry, species assumed, looked up): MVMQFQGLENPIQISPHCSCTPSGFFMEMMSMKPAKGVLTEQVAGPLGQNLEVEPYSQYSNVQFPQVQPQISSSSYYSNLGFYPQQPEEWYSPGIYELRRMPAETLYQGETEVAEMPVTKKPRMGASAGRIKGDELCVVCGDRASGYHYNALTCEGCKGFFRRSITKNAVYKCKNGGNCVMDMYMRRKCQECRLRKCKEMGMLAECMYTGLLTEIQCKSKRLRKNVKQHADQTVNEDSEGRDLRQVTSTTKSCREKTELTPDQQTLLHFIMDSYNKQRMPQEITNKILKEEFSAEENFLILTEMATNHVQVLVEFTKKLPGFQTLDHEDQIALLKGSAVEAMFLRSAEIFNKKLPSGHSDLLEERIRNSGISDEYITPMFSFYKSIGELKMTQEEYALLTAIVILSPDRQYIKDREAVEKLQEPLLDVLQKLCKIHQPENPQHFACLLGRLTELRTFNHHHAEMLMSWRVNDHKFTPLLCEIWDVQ

Molecule	Time to conversion in clofibric acid in human microsomes [1] [min]	IL-1β mRNA expression (U937 cells)	IL-6 mRNA expression (U937 cells)	efficacy of SRC-1 recruitment with BAR502 (% vs. fenofibrate) (% vs. fenofibrate) (PPARα LBD GST fused)	efficacy of SRC-1 recruitment with BAR505 (% vs. fenofibrate) (% vs. fenofibrate) (PPARα LBD GST fused)	EC50 of compound 1 for SRC-1 recruitment (the compound is titrated) (FXR-LBD GST-fused) [µM]	EC50 of compound 3 for SRC-1 recruitment (the compound is titrated) (FXR-LBD GST-fused) [µM]	EC50 of the compound BAR502 for SRC-1 recruitment (the compound is titrated) (FXR-LBD GST-fused) [µM]	efficacy of SRC-1 recruitment with BAR502 (% vs. CDCA) (FXR-LBD GST-fused)	efficacy of SRC-1 recruitment with compound 1 (% vs. CDCA) (FXR-LBD GST-fused)	efficacy of SRC-1 recruitment with compound 3 (% vs. CDCA) (FXR-LBD GST-fused)
CCOC(=O)C(C)(C)Oc1ccc(Cl)cc1 [clofibrate]	≤ 30	reducing the expression of pro-inflammatory cytokines	reducing the expression of pro-inflammatory cytokines								
CPSSHSSLTERHKILHRLLQEGSPS (also: biotin, position not given here) [biotinylated SRC1 peptide]				36	40	3.4	17.9	0.69	153	79	48
